Results: paper PMC11417369, “DNA sequence and chromatin differentiate sequence-specific transcription factor binding in the human malaria parasite Plasmodium falciparum”
Numbering of substitutions follows the chain as printed.

T1: PF3D7_0420300 D1 (Plasmodium falciparum, UniProt Q8I1N6 1956-2015)
T1 sequence: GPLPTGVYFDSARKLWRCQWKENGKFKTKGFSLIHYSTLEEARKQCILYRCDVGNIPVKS

T2: AP2-HC D1 (Plasmodium falciparum, UniProt Q8IKR9 1316-1374)
T2 sequence: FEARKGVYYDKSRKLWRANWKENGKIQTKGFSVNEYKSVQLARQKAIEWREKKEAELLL

T3: AP2-LT D1 (Plasmodium falciparum, UniProt Q8IAM1 2520-2577)
T3 sequence: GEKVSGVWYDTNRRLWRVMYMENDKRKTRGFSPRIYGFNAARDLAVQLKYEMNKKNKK

B1: CACACA_site365 (dsDNA)
DNA 1: CACCCCCACAGACACACACACACACCCACATATATA
DNA 2: TATATATGTGGGTGTGTGTGTGTGTCTGTGGGGGTG
B2: CACACA_site2859 (dsDNA)
DNA 1: AAAAAAAAAAAACACACACACACACCCACCCATACA
DNA 2: TGTATGGGTGGGTGTGTGTGTGTGTTTTTTTTTTTT
B3: CACACA_site6215 (dsDNA)
DNA 1: AAAAAAAAAAGACACACACACACATAAATATAAATA
DNA 2: TATTTATATTTATGTGTGTGTGTGTCTTTTTTTTTT
B4: CACACA_site2306 (dsDNA)
DNA 1: CCCCCCCACAGACACACACACATACATACCACATAT
DNA 2: ATATGTGGTATGTATGTGTGTGTGTCTGTGGGGGGG
B5: CACACA_site7754 (dsDNA)
DNA 1: TAAAATAAAACAAACACACACACACGGACACAAAAA
DNA 2: TTTTTGTGTCCGTGTGTGTGTGTTTGTTTTATTTTA
B6: CACACA_site4553 (dsDNA)
DNA 1: AAAAAAAGATTATACACACACATATATAAACATACA
DNA 2: TGTATGTTTATATATGTGTGTGTATAATCTTTTTTT
B7: CACACA_negctrl_site669 (dsDNA)
DNA 1: TAACTTTTATCCTTAATTCATATATAAGATTAAATC
DNA 2: GATTTAATCTTATATATGAATTAAGGATAAAAGTTA
B8: CACACA_negctrl_site694 (dsDNA)
DNA 1: TAATTTATTACCATGTAATTATTACGAATATAGGAT
DNA 2: ATCCTATATTCGTAATAATTACATGGTAATAAATTA
B9: CACACA_site7363 (dsDNA)
DNA 1: B2 DNA 1 with A11G, C26G, C27G, C30A
DNA 2: B2 DNA 2 with G7T, G10C, G11C, T26C
B10: CACACA_site5576 (dsDNA)
DNA 1: B2 DNA 1 with C27G, C30A
DNA 2: B2 DNA 2 with G7T, G10C
B11: CACACA_site362 (dsDNA)
DNA 1: CACCCACACCAACACACACACATATATATATATATA
DNA 2: TATATATATATATATGTGTGTGTGTTGGTGTGGGTG
B12: CACACA_negctrl_site709 (dsDNA)
DNA 1: TGAAAAAAAAAAAAAAAAAAAAGAAAAAAAAAAAAA
DNA 2: TTTTTTTTTTTTTCTTTTTTTTTTTTTTTTTTTTCA
B13: CACACA_site8410 (dsDNA)
DNA 1: AAAAAATCACAACACACACACACACTAATAAAAAAA
DNA 2: TTTTTTTATTAGTGTGTGTGTGTGTTGTGATTTTTT
B14: CACACA_site8345 (dsDNA)
DNA 1: AATACCCAAGGACACACACACACATATATATATATA
DNA 2: TATATATATATATGTGTGTGTGTGTCCTTGGGTATT
B15: CACACA_site4721 (dsDNA)
DNA 1: AACATTATAGGACACACACACACATATATATATATA
DNA 2: TATATATATATATGTGTGTGTGTGTCCTATAATGTT
B16: CACACA_negctrl_site1674 (dsDNA)
DNA 1: TATTTTAATTATAAATTTAAAAAAAAAAAGAAAAAA
DNA 2: TTTTTTCTTTTTTTTTTTAAATTTATAATTAAAATA
B17: CACACA_negctrl_site934 (dsDNA)
DNA 1: AATTTTATTTAATTTTTTTGGGAAATGATAAAATTT
DNA 2: AAATTTTATCATTTCCCAAAAAAATTAAATAAAATT
B18: CACACA_negctrl_site22 (dsDNA)
DNA 1: TTTTAAGATATAAATTAATACTTATATATATAGATA
DNA 2: TATCTATATATATAAGTATTAATTTATATCTTAAAA

Each binder was assayed against T1, PF3D7_0420300 D1 (assay: gcPBM; about 25 ug protein; PBS, 1% milk, 0.2 mg/ml BSA, salmon testes DNA, 0.03% Triton X-100). Details: tags: N-terminal GST (pGEX-4T-1), kept; label: surface-attached array probe.

Binder	binding signal
B1	10.4 ln median PBM intensity, better of two orientations
B2	10.7 ln median PBM intensity, better of two orientations
B3	10.3 ln median PBM intensity, better of two orientations
B4	11 ln median PBM intensity, better of two orientations
B5	10.4 ln median PBM intensity, better of two orientations
B6	10.1 ln median PBM intensity, better of two orientations
B7	8.85 ln median PBM intensity, better of two orientations

These binders were tested against T2, AP2-HC D1 in the same assay as above. Details: tags: N-terminal GST (pGEX-4T-1), kept; label: surface-attached array probe.

Binder	binding signal
B1	10.8 ln median PBM intensity, better of two orientations
B8	9.4 ln median PBM intensity, better of two orientations
B2	11.8 ln median PBM intensity, better of two orientations
B9	11.9 ln median PBM intensity, better of two orientations
B10	12.5 ln median PBM intensity, better of two orientations
B3	12.2 ln median PBM intensity, better of two orientations
B11	11.7 ln median PBM intensity, better of two orientations
B12	8.7 ln median PBM intensity, better of two orientations
B13	12.3 ln median PBM intensity, better of two orientations
B14	11.8 ln median PBM intensity, better of two orientations
B15	11.9 ln median PBM intensity, better of two orientations
B16	9.42 ln median PBM intensity, better of two orientations
B17	9.22 ln median PBM intensity, better of two orientations
B4	11.9 ln median PBM intensity, better of two orientations
B18	9.27 ln median PBM intensity, better of two orientations
B5	11.9 ln median PBM intensity, better of two orientations
B6	10.7 ln median PBM intensity, better of two orientations
B7	9.41 ln median PBM intensity, better of two orientations

The binders below were run against T3, AP2-LT D1 in the same assay as above. Details: tags: N-terminal GST (pGEX-4T-1), kept; label: surface-attached array probe.

Binder	binding signal
B8	8.68 ln median PBM intensity, better of two orientations
B2	10.8 ln median PBM intensity, better of two orientations
B9	10.2 ln median PBM intensity, better of two orientations
B10	10.6 ln median PBM intensity, better of two orientations
B11	10.8 ln median PBM intensity, better of two orientations
B12	8.21 ln median PBM intensity, better of two orientations
B13	10.7 ln median PBM intensity, better of two orientations
B14	10.8 ln median PBM intensity, better of two orientations
B15	10.7 ln median PBM intensity, better of two orientations
B16	8.52 ln median PBM intensity, better of two orientations
B17	8.39 ln median PBM intensity, better of two orientations
B4	11 ln median PBM intensity, better of two orientations
B18	8.45 ln median PBM intensity, better of two orientations
B7	8.63 ln median PBM intensity, better of two orientations
